Assay results reported in the supplement of paper PMC5998384.

Experiments:
[1] = test system: HeLa Kyoto; experiment: solubility in G1/S (NP-40 vs SDS abundance) (log2 ratio); higher = more soluble; conditions: cell cycle stage: G1/S
[2] = test system: HeLa Kyoto; experiment: melting temperature (median over replicates), in situ; higher = more thermally stable
[3] = test system: HeLa Kyoto; experiment: solubility change mitosis vs G1/S (difference of NP-40 vs SDS log2 ratios) (log2 ratio difference); higher = more soluble in mitosis
[4] = test system: HeLa Kyoto; experiment: thermal stability score vs G1/S (z-score of summed log2 fold changes over temperatures); higher = more thermally stable than in G1/S
[5] = cell cycle stage: early G1 (4.5 h after nocodazole release)
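Throughout, for melting temperature (median over replicates), in situ: HeLa Kyoto cells synchronized by double thymidine or nocodazole block, proteins quantified by TMT10plex mass spectrometry, three independent biological replicates.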
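Throughout, for solubility change mitosis vs G1/S (difference of NP-40 vs SDS log2 ratios): synchronized HeLa Kyoto cells (double thymidine block for G1/S, nocodazole release for mitosis), protein amounts in NP-40 versus SDS lysates quantified by mass spectrometry, three biological replicates.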
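Throughout, for solubility in G1/S (NP-40 vs SDS abundance): HeLa Kyoto cells arrested at G1/S by double thymidine block, proteins quantified by TMT10plex mass spectrometry in mild NP-40 versus SDS extracts, three biological replicates.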
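Throughout, for thermal stability score vs G1/S (z-score of summed log2 fold changes over temperatures): synchronized HeLa Kyoto cells, proteins quantified by TMT10plex mass spectrometry, three biological replicates, mitosis taken 0.5 h after nocodazole release, G1/S directly after double thymidine block.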

| Sequence | solubility in G1/S (log2) [1] | melting temperature ([2]; cell cycle stage: G1/S) | melting temperature ([2]; cell cycle stage: mitosis) | solubility change mitosis (log2) [3] | thermal stability score [4, 5] | thermal stability score ([4]; cell cycle stage: mitosis) |
| --- | --- | --- | --- | --- | --- | --- |
| MGSRVSREDFEWVYTDQPHADRRREILAKYPEIKSLMKPDPNLIWIIIMMVLTQLGAFYIVKDLDWKWVIFGAYAFGSCINHSMTLAIHEIAHNAAFGNCKAMWNRWFGMFANLPIGIPYSISFKRYHMDHHRYLGADGVDVDIPTDFEGWFFCTAFRKFIWVILQPLFYAFRPLFINPKPITYLEVINTVAQVTFDILIYYFLGIKSLVYMLAASLLGLGLHPISGHFIAEHYMFLKGHETYSYYGPLNLLTFNVGYHNEHHDFPNIPGKSLPLVRKIAAEYYDNLPHYNSWIKVLYDFVMDDTISPYSRMKRHQKGEMVLE [DEGS1] | -0.186 | 55 °C | 55.2 °C | -0.264 | -0.898 | -1.88 |
| MGTPGEGLGRCSHALIRGVPESLASGEGAGAGLPALDLAKAQREHGVLGGKLRQRLGLQLLELPPEESLPLGPLLGDTAVIQGDTALITRPWSPARRPEVDGVRKALQDLGLRIVEIGDENATLDGTDVLFTGREFFVGLSKWTNHRGAEIVADTFRDFAVSTVPVSGPSHLRGLCGMGGPRTVVAGSSDAAQKAVRAMAVLTDHPYASLTLPDDAAADCLFLRPGLPGVPPFLLHRGGGDLPNSQEALQKLSDVTLVPVSCSELEKAGAGLSSLCLVLSTRPHS [DDAH2] | 0.479 | 55.2 °C | 54 °C | 0.0772 | 0.156 | 0.00237 |
| MGTPQKDVIIKSDAPDTLLLEKHADYIASYGSKKDDYEYCMSEYLRMSGIYWGLTVMDLMGQLHRMNREEILAFIKSCQHECGGISASIGHDPHLLYTLSAVQILTLYDSINVIDVNKVVEYVKGLQKEDGSFAGDIWGEIDTRFSFCAVATLALLGKLDAINVEKAIEFVLSCMNFDGGFGCRPGSESHAGQIYCCTGFLAITSQLHQVNSDLLGWWLCERQLPSGGLNGRPEKLPDVCYSWWVLASLKIIGRLHWIDREKLRNFILACQDEETGGFADRPGDMVDPFHTLFGIAGLSLLGEEQIKPVNPVFCMPEEVLQRVNVQPELVS [RABGGTB] | 0.122 | 49.8 °C | 50.3 °C | -0.347 | -0.232 | 1.64 |
| MGTPRAQHPPPPQLLFLILLSCPWIQGLPLKEEEILPEPGSETPTVASEALAELLHGALLRRGPEMGYLPGSDRDPTLATPPAGQTLAVPSLPRATEPGTGPLTTAVTPNGVRGAGPTAPELLTPPPGTTAPPPPSPASPGPPLGPEGGEEETTTTIITTTTVTTTVTSPVLCNNNISEGEGYVESPDLGSPVSRTLGLLDCTYSIHVYPGYGIEIQVQTLNLSQEEELLVLAGGGSPGLAPRLLANSSMLGEGQVLRSPTNRLLLHFQSPRVPRGGGFRIHYQAYLLSCGFPPRPAHGDVSVTDLHPGGTATFHCDSGYQLQGEETLICLNGTRPSWNGETPSCMASCGGTIHNATLGRIVSPEPGGAVGPNLTCRWVIEAAEGRRLHLHFERVSLDEDNDRLMVRSGGSPLSPVIYDSDMDDVPERGLISDAQSLYVELLSETPANPLLLSLRFEAFEEDRCFAPFLAHGNVTTTDPEYRPGALATFSCLPGYALEPPGPPNAIECVDPTEPHWNDTEPACKAMCGGELSEPAGVVLSPDWPQSYSPGQDCVWGVHVQEEKRILLQVEILNVREGDMLTLFDGDGPSARVLAQLRGPQPRRRLLSSGPDLTLQFQAPPGPPNPGLGQGFVLHFKEVPRNDTCPELPPPEWGWRTASHGDLIRGTVLTYQCEPGYELLGSDILTCQWDLSWSAAPPACQKIMTCADPGEIANGHRTASDAGFPVGSHVQYRCLPGYSLEGAAMLTCYSRDTGTPKWSDRVPKCALKYEPCLNPGVPENGYQTLYKHHYQAGESLRFFCYEGFELIGEVTITCVPGHPSQWTSQPPLCKVTQTTDPSRQLEGGNLALAILLPLGLVIVLGSGVYIYYTKLQGKSLFGFSGSHSYSPITVESDFSNPLYEAGDTREYEVSI [SEZ6L2] | -0.174 | 53.7 °C | 54.8 °C | 0.0248 | -0.928 | -1.52 |
| MGTQKVTPALIFAITVATIGSFQFGYNTGVINAPEKIIKEFINKTLTDKGNAPPSEVLLTSLWSLSVAIFSVGGMIGSFSVGLFVNRFGRRNSMLIVNLLAVTGGCFMGLCKVAKSVEMLILGRLVIGLFCGLCTGFVPMYIGEISPTALRGAFGTLNQLGIVVGILVAQIFGLEFILGSEELWPLLLGFTILPAILQSAALPFCPESPRFLLINRKEEENAKQILQRLWGTQDVSQDIQEMKDESARMSQEKQVTVLELFRVSSYRQPIIISIVLQLSQQLSGINAVFYYSTGIFKDAGVQEPIYATIGAGVVNTIFTVVSLFLVERAGRRTLHMIGLGGMAFCSTLMTVSLLLKDNYNGMSFVCIGAILVFVAFFEIGPGPIPWFIVAELFSQGPRPAAMAVAGCSNWTSNFLVGLLFPSAAHYLGAYVFIIFTGFLITFLAFTFFKVPETRGRTFEDITRAFEGQAHGADRSGKDGVMEMNSIEPAKETTTNV [SLC2A3] | -0.0807 | 62.7 °C | 59.1 °C | -0.0464 | -2.61 | -5.18 |
| MGTVHARSLEPLPSSGPDFGGLGEEAEFVEVEPEAKQEILENKDVVVQHVHFDGLGRTKDDIIICEIGDVFKAKNLIEVMRKSHEAREKLLRLGIFRQVDVLIDTCQGDDALPNGLDVTFEVTELRRLTGSYNTMVGNNEGSMVLGLKLPNLLGRAEKVTFQFSYGTKETSYGLSFFKPRPGNFERNFSVNLYKVTGQFPWSSLRETDRGMSAEYSFPIWKTSHTVKWEGVWRELGCLSRTASFAVRKESGHSLKSSLSHAMVIDSRNSSILPRRGALLKVNQELAGYTGGDVSFIKEDFELQLNKQLIFDSVFSASFWGGMLVPIGDKPSSIADRFYLGGPTSIRGFSMHSIGPQSEGDYLGGEAYWAGGLHLYTPLPFRPGQGGFGELFRTHFFLNAGNLCNLNYGEGPKAHIRKLAECIRWSYGAGIVLRLGNIARLELNYCVPMGVQTGDRICDGVQFGAGIRFL [SAMM50] | -0.348 | 56.1 °C | 54.6 °C | -0.0834 | -2.61 | -4.33 |
| MGVQGFQDYIEKHCPSAVVPVELQKLARGSLVGGGRQRPPQTPLRLLVDADNCLHRLYGGFYTDWVSGGQWNHMLGYLAALAKACFGGNIELFVFFNGALEKARLHEWVKRQGNERQTAQQIVSHVQNKGTPPPKVWFLPPVCMAHCIRLALIRFHVKVAQSIEDHHQEVIGFCRENGFHGLVAYDSDYALCNIPYYFSAHALKLSRNGKSLTTSQYLMHEVAKQLDLNPNRFPIFAALLGNHILPDEDLASFHWSLLGPEHPLASLKVRAHQLVLPPCDVVIKAVADYVRNIQDTSDLDAIAKDVFQHSQSRTDDKVIRFKRAIGYYSATSKPMSFHPPHYLAARPGPFGMPGMVPPHVPPQMLNIPQTSLQAKPVAPQVPSPGGAPGQGPYPYSLSEPAPLTLDTSGKNLTEQNSYSNIPHEGKHTPLYERSSPINPAQSGSPNHVDSAYFPGSSTSSSSDNDEGSGGATNHISGNKIGWEKTGSHSEPQARGDPGDQTKAEGSSTASSGSQLAEGKGSQMGTVQPIPCLLSMPTRNHMDITTPPLPPVAPEVLRVAEHRHKKGLMYPYIFHVLTKGEIKIAVSIEDEANKDLPPAALLYRPVRQYVYGVLFSLAESRKKTERLAFRKNRLPPEFSPVIIKEWAAYKGKSPQTPELVEALAFREWTCPNLKRLWLGKAVEDKNRRMRAFLACMRSDTPAMLNPANVPTHLMVLCCVLRYMVQWPGARILRRQELDAFLAQALSPKLYEPDQLQELKIENLDPRGIQLSALFMSGVDMALFANDACGQPIPWEHCCPWMYFDGKLFQSKLLKASREKTPLIDLCDGQADQAAKVEKMRQSVLEGLSFSRQSHTLPFPPPPALPFYPASAYPRHFGPVPPSQGRGRGFAGVCGFGGPYGETVATGPYRAFRVAAASGHCGAFSGSDSSRTSKSQGGVQPIPSQGGKLEIAGTVVGHWAGSRRGRGGRGPFPLQVVSVGGPARGRPRGVISTPVIRTFGRGGRYYGRGYKNQAAIQGRPPYAASAEEVAKELKSKSGESKSSAMSSDGSLAENGVMAEEKPAPQMNGSTGDARAPSHSESALNNDSKTCNTNPHLNALSTDSACRREAALEAAVLNKEE [FAM120A] | -0.143 | 50.9 °C | 50.6 °C | -0.0663 | -0.707 | -2.24 |
| MHPAGLAAAAAGTPRLRKWPSKRRIPVSQPGMADPHQLFDDTSSAQSRGYGAQRAPGGLSYPAASPTPHAAFLADPVSNMAMAYGSSLAAQGKELVDKNIDRFIPITKLKYYFAVDTMYVGRKLGLLFFPYLHQDWEVQYQQDTPVAPRFDVNAPDLYIPAMAFITYVLVAGLALGTQDRFSPDLLGLQASSALAWLTLEVLAILLSLYLVTVNTDLTTIDLVAFLGYKYVGMIGGVLMGLLFGKIGYYLVLGWCCVAIFVFMIRTLRLKILADAAAEGVPVRGARNQLRMYLTMAVAAAQPMLMYWLTFHLVR [YIF1B] | 0.0319 | 53.5 °C | 54.8 °C | -0.373 | -0.959 | -1.51 |
| MHQQKRQPELVEGNLPVFVFPTELIFYADDQSTHKQVLTLYNPYEFALKFKVLCTTPNKYVVVDAAGAVKPQCCVDIVIRHRDVRSCHYGVIDKFRLQVSEQSQRKALGRKEVVATLLPSAKEQQKEEEEKRLKEHLTESLFFEQSFQPENRAVSSGPSLLTVFLGVVCIAALMLPTLGDVESLVPLYLHLSVNQKLVAAYILGLITMAILRT [MOSPD1] | 0.0717 | 54.2 °C | 54.9 °C | 0.352 | -1.29 | -2.15 |
| MHSEAEESKEVATDVFNSKNLAVQAQKKILGKMVSKSIATTLIDDTSSEVLDELYRVTREYTQNKKEAEKIIKNLIKTVIKLAILYRNNQFNQDELALMEKFKKKVHQLAMTVVSFHQVDYTFDRNVLSRLLNECREMLHQIIQRHLTAKSHGRVNNVFDHFSDCEFLAALYNPFGNFKPHLQKLCDGINKMLDEENI [TNFAIP8] | 0.339 | 51.9 °C | 51.7 °C | -0.272 | 0.429 | -0.108 |
| MHVIKRDGRQERVMFDKITSRIQKLCYGLNMDFVDPAQITMKVIQGLYSGVTTVELDTLAAETAATLTTKHPDYAILAARIAVSNLHKETKKVFSDVMEDLYNYINPHNGKHSPMVAKSTLDIVLANKDRLNSAIIYDRDFSYNYFGFKTLERSYLLKINGKVAERPQHMLMRVSVGIHKEDIDAAIETYNLLSERWFTHASPTLFNAGTNRPQLSSCFLLSMKDDSIEGIYDTLKQCALISKSAGGIGVAVSCIRATGSYIAGTNGNSNGLVPMLRVYNNTARYVDQGGNKRPGAFAIYLEPWHLDIFEFLDLKKNTGKEEQRARDLFFALWIPDLFMKRVETNQDWSLMCPNECPGLDEVWGEEFEKLYASYEKQGRVRKVVKAQQLWYAIIESQTETGTPYMLYKDSCNRKSNQQNLGTIKCSNLCTEIVEYTSKDEVAVCNLASLALNMYVTSEHTYDFKKLAEVTKVVVRNLNKIIDINYYPVPEACLSNKRHRPIGIGVQGLADAFILMRYPFESAEAQLLNKQIFETIYYGALEASCDLAKEQGPYETYEGSPVSKGILQYDMWNVTPTDLWDWKVLKEKIAKYGIRNSLLIAPMPTASTAQILGNNESIEPYTSNIYTRRVLSGEFQIVNPHLLKDLTERGLWHEEMKNQIIACNGSIQSIPEIPDDLKQLYKTVWEISQKTVLKMAAERGAFIDQSQSLNIHIAEPNYGKLTSMHFYGWKQGLKTGMYYLRTRPAANPIQFTLNKEKLKDKEKVSKEEEEKERNTAAMVCSLENRDECLMCGS [RRM1] | -0.148 | 56.1 °C | 53.8 °C | -0.154 | -8.92 | -8.47 |
| MIALFNKLLDWFKALFWKEEMELTLVGLQYSGKTTFVNVIASGQFNEDMIPTVGFNMRKITKGNVTIKLWDIGGQPRFRSMWERYCRGVSAIVYMVDAADQEKIEASKNELHNLLDKPQLQGIPVLVLGNKRDLPGALDEKELIEKMNLSAIQDREICCYSISCKEKDNIDITLQWLIQHSKSRRS [ARL8A] | -0.0955 | 54.3 °C | 54.4 °C | -0.116 | -1.51 | -1.71 |
